# Assay: label from the status in PepcDB records
row,Sequence,protein production
1,MTITSNISVQNDNLVVQGKTILTKIPDNIILTPVTGNGFVSGSFIGATFEQSKSLHVFPIGVLEGLRFMCCFRFKLWWMTQRMGSCGKDIPLETQFMLLESKDEVEGNGDDAPTVYTVFLPLLEGQFRAVLQGNEKNEIEICFESGDKAVETSQGTHLVYVHAGTNPFEVIRQSVKAVERHMQTFHHREKKKLPSFLDWFGWCTWDAFYTDVTAEGVDEGLKSLSEGGTPPKFLIIDDGWQQIENKEKDENCVVQEGAQFATRLVGIKENAKFQKSDQKDTQVSGLKSVVDNAKQRHNVKQVYAWHALAGYWGGVKPAASGMEHYDSALAYPVQSPGVLGNQPDIVMDSLAVHGLGLVNPKKVFNFYNELHSYLASCGIDGVKVDVQNIIETLGAGLGGRVSLTRSYQQALEASIARNFTDNGCISCMCHNTDGLYSAKQTAIVRASDDFYPRDPASHTIHIASVAYNSLFLGEFMQPDWDMFHSLHPTAEYHAAARAVGGCAIYVSDKPGNHNFDLLRKLVLPDGSVLRAKLPGRPTRDCLFADPARDGIRCWLVQGNEEEPDP,failed
2,MTIVGLKKTYLGLIDKKTGKIIAGPEGLTTDGLYMSNPKDLGTASANITNIAAAGTQKFGDNGLVDVVSSKSFPQVAAVWNNLPFDIKAKIKGEVSDKKGGYVQSQDLPQVALIIESELIDRSHSIFYAFGNGHMTETALNIQTDNAAQNRVEDALTYQSLAFEAWNNQGMKTFNSADSGFDKTAMLKEVMGGYAASGLGVLEHHHHHH,failed
3,MTIYHFVGIKGSGMSALAQILHDKGFQVQGSDVDKYFFTQKALEEKQIPIMTFSADNIQEGLTIIAGNAFPDTHEEIERALELGLSVIRYHKFLGQLIDGYTSIAITGSHGKTSTTGLLSHVVGAIRPTSYLIGDGTGSGTKDAEYFALEACEYQRHFLAYKPTYAIMTNIDWDHPDYFKSVDDVFNAFETLGKQVKKAVFALGDDAELRKLTLDIPIIYFGFGEENEFQAKNVIKETTGTKFDVYHREEFLSSFEIPAYGDHNVLNALSVIALCDYEGLPVEDVKNELKTFEGVKRRFSITEKGNQVLVDDYAHHPSEIRATVNAARQKYPDKKVVAVFQPHTFTRTRTFLQGFADSLNLADEVYLCDIFGSAREKTGNLTIADLAHKTKGNHIIKEEHTEELLKYPEAVILFMGAGDVQKFQAAYEKVLDHEFLTEADLKKSAIN,failed
4,MTIYLHSIQIGVLLFFIFLFISLIPYLIVQYRRYGRINFWRFFVNFSFILYLICAYAMTIFPLPPVSEVAKMTGPKQNLVPFEFVRQFILYSPFNINEPSTWLAALKDSTFIQPFFNLLLTLPFGLYLRYLFKRSFKQTFVLSFLLTLSFELIQRSALFGLYPRPYRLFDVDDLMINTLGSLIGFGIAVTFSRFLPDLDATKAESSRVSLSRRFIAFLVDLVLIFIIGSLFLPIGYYSELIILGLVPLVLKATPGQLLLRIQIKAKNRFRIALRQFLSFGNFALIISAEYFLQRSGTIPQDQLGQNFLLILLFLGLSLLPLLDVLIAFLSKTRKLWYERVSDTEMIAKLKTNEE,failed
5,MTIYTLSHGSLKLDVSDQGGVIEGFWRDTTPLLRPGKKSGVATDASCFPLVPFANRVSGNRFVWQGREYQLQPNVEWDAHYLHGDGWLGEWQCVSHSDDSLCLVYEHRSGVYHYRVSQAFHLTADTLTVTLSVTNQGAETLPFGTGWHPYFPLSPQTRIQAQASGYWLEREQWLAGEFCEQLPQELDFNQPAPLPRQWVNNGFAGWNGQARIEQPQEGYAIIMETTPPAPCYFIFVSDPAFDKGYAFDFFCLEPMSHAPDDHHRPEGGDLIALAPGESTTSEMSLRVEWL,not failed
6,MTKAPSLAFLCIQSLKIQLLESDNPIPDLYELPSELLDGIVAHLPALALQKFQTNMPFHCLDSYESGDDCCLITGRKRARNDVLGSSWKLLFKLRWPDFVDRVESPADWQQLYWEKHLQNCVDEAAEVALRPTFSGRICSINVSDNILRYICHEEHIMTCQNCVCKELSFHFQTFGPYLRCLRLLNVLCVTETSELLRTSKLRSLVLRWIRSEKHVEPLCKLLIQSRETLTSLELIHCKLSLSSISAICTSLHEKGIHTTGMQRFCIKTSSIEIDPLAAPSAFVSFLMSVRTLHSLHFGDSNLDRYFARMVFSTLLDSSSNLSSLDLSENNISGWLSTFSCKSVVGSLSSGKSLQSLCKLNLRGNELDRYDAENLAHALLHMPGLESLDLSGNPIEDSGIRSLISYFTKNPDSRLADLNLENCELSCCGVIEFLDTLSMLEKPLKFLSVADNALGSEVAEAVVNSFTISIESLNIMGIGLGPLGFLALGRKLEKVSKKLLSINISKNRGGLETARFLSKLIPLAPKLISIDASYNLMPPEALLMLCDSLRTAKGDLKRLDMTGNSCISHEADHSSLLHEFQHNGEPIFVLPSSSVSHVPYDDDP,failed
7,MTKEKSTVPRLRFPGFTDAWKQRKLGEVADFSIKTNSLSRDKLSSYFYEVQNIHYGDILTKYDAILDVCNKELPSIIGSTISDFADALLSEGDIVFADAAEDSTVGKAIEVRNFKGKNVVSGLHTIVARPKVSYAPYYLGYLINSTAYHNQILPLMQGTKVSSISKANLKSTTVVFPTLPEQEAIGSFFSDLDQLITLHQRKLDDVKELKKALLQKMFPKGNGNDFPELRFPEFTDAWKQRKLGEFMKESKILGSKGDIARKLTVRLWGRGVVSKKEIYSGSSATQYYIRKSGQFIYGKLDFLNQAFGIIPPELDGYESTLDSPAFDLLKGINGQFLLEFVSRKEFYYYQGNIANGSRKAKRIHTETFLGMPISLPTLPEQEAIGSFFSDLDQLITLHQRK,failed
8,MTKETDDDDNDIPIQEDDEEKNPDQDYQELLDGLLNLSGRQLLMFYWDHELTEAVREGFEVISQKWMKGIDQMWVHWNTSRATVRSESASQFRNSDRGGLGPHRNISSQKSFVQVHEELEELYGRHVSLGEVFMKTHTRADGSFVDAKAEKVAEVYKKACEEKLTEIDDDGPKTSMNSSELSTHRDLNIDDKNEIFLQSAS,failed
9,MTKFYKFLISIIILALVCLIFFLAKSNILNLDSLKNLILSSGYFAPLIYIIAFALVPLTFFPDSILAILGGSIFGLGGGFLYTSIGALIGGSISFFISRILGQSFVEKFENDKLKNIQELLKDNGFLMILLLRLIPLFPFDLISYGAGLTKISYKDFALGTLIGTIPGILVFVNLGAQWITFNKTSIYLSVSLLILFIIVSVFLKKIYINKHLAKGN,failed
10,MTKGESTMQRIAVLSDAETATGYRLAGATVIEASPEDALRTLEQAITDGGYGLIAVDTGLIPDPATATARIMRGRDLPILLPIPSLRDAFSSDTVDAKAYMGKLVRDTIGFDIKLLEHHHHHH,not failed
11,MTKIACVIVTYNRKQLLEEALNSVLIQTESPEYVFVIDNASTDGTEKYINDKFNFDNRQWHYVRCSQNLGGSAGFAQGMRLALQTDCSWISISDDDAIFEPGYFAALRKGIKQYPEQSVFSGSVLLPDGKHDMMHREVITNSATLTVRCVTDETYKHDFSYDIFSFVGILLSRQVIEAIGLPEQDYFIRFDDFEYAVRALKFGRFMNLSAAKVLHKTTYTRSAIAPWKEYYVMRNRIALLIKHRGNNHTVRWYCRRFLLRKLLAILLFSNRRRQARSLVNAYVKGYQDGWHARLGRQLAFLPS,failed
12,MTKILAIIGARLNSSRLAGKHLLPLACDAAGNTLPIIGHILRRLKTCSTISSIELATTADEFNQPLINWAQENQLTCVPFEGDVNDLMGRLDRIIQRQQPDYIVYICGDCPLIDPNFIDHALLALKASDKDTITLKEGIISLHEGIGFYTRSGWNRLMAVSDCVMSREHVGYGDKLRPVLTKLYIDDSGNYGKITHRISVDTHADYRFMVEVYRRWYVNNPTETVVSLEWVQEELLKDSALFAINAHVQQKAANKNYAKASIYCHLGPQIGLGHFKRSELIANALQEHLSLGVNIHAYSEAGQRLDSSSKVVWHEDEQALLSALTEDQNPLVLLDFHPNFIDLESFANRLAGLAKHGAKRIGIDKMAPLLDELDWLFIPSFNSPTHHPKISAGWRNYLFSTIPQATKQAQILVLTGGSDALGYGRELPTILDSIGTDWPILWIQGPLAPAPQLTPNSAIVVQQNPDNLKEIIAQSEIILSCYGLSLFESIYGKAATLLLPPQHLCDEAELFALNQERCCLVSDSLEEAKMMLQQLLTEPEQRRSLQNQATRVFESHQGIQALIDDIHHLLGAVN,failed
13,MTKKEKGTMMTLAAGLAWGISGISGQYLMSHGVHVNLLTSLRLLITGIFLLSLARSKQKEHLVAAWKQPKFLKQVLLFSIFGLVLNQYAFLRAIHLTNAGTATVLQYMAPILILSIVCILNRQRPTSFEIIAIAMAILGTYMIATHGKLGSLAITPKGLMWGLGSAITYSIYILLPVKLIHEWGSTIVIGSGMFIGGILFSLVTKAWQYPLQINVMSILAYIGIIGIGTIFAYTFFLKGVSIVGAVKGSLLASVEPVSSVFLTVLVLGEIFYPIDLLGMLFIFLAVTLISYKDLIALKKMKRVR,failed

# From a protein production outcome set (Wang et al. 2014)
